Laboratory results taken from article PMC3383723.

Biological target: T1, Vps41-TAP (yeast), P38959
T1 chain: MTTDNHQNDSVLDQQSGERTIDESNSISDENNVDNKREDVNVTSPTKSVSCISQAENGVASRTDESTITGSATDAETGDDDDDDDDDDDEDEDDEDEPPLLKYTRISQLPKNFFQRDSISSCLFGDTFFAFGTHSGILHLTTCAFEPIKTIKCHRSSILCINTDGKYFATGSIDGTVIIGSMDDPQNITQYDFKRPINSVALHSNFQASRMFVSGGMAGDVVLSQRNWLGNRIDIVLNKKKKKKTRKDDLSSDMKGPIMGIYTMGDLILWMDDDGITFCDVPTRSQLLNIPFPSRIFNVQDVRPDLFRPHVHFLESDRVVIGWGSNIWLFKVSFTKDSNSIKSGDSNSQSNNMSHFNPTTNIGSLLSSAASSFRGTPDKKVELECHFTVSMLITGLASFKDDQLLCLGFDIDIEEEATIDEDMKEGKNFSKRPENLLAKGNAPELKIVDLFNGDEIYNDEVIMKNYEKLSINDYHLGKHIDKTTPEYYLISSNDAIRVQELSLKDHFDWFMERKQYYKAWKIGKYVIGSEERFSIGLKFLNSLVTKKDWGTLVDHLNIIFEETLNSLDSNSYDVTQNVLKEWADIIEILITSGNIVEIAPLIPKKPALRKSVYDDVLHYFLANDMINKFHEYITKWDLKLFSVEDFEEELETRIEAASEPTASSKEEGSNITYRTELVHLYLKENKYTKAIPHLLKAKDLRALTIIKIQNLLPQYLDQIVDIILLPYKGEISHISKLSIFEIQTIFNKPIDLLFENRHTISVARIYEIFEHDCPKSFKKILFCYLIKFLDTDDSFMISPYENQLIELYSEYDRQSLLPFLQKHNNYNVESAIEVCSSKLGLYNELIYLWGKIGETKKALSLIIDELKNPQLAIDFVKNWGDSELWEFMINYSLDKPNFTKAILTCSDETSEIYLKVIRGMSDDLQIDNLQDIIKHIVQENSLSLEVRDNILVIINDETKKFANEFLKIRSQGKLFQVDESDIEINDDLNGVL
Assay: co-IP
Conditions: remark: other sources report otherwise

B1: Vps39, Q07468 1-1049 (natural protein)
chain: MLRAQKLHSLKSSDITAILPTEQSQKLVLAKKNGDVEVYSRDGNTLKLFQVYPDLLQNAKNDPLPPVIENFYFANELSTIFAQCKETLILLSTTNLHEYDRIIDRRGINHCWLFERSHKNKEEKNTYLIYSTINTAKMRVLIWEGRTYKNMMEASLSYRKETIRSIYPGETGITLATDLGIYHWPYNKPSLIRIEKTVKNKFPKDMISALTELKEQAEKVIEKKPKKNSHFDAQSFSSMDRMSRKSSMSSLWYRTIRNERGNKIRYTFELDGNDATPMIIDGATKKIFKVELMHNNEEPFLIATDHATFSESNSEFDHMQYLSSNLLMLYNSSTIKFVDYENGFTFLQQKIPEGIKWVKNLSGTYFLVWTSNDEVQLFSYHVDDGSEDDDQESICGDINDPDFYQLWRKVLFYKFFIDSPHSKELCVSDNPEESLDICAMKLRDLTVMWCLRIFDKFQNYMVQLERSRNSRMIRSKCEEMIIKSIFDLFIKFWAPPQLVILKVFPSAISSLVLEITGQEHHCLLKEAEEVKETYDIPPHLLNRWCLPYLTDTRRHLQNLLSKENDDESRITWCYRDREIKQSFDFFLISNHDDVDLNTMLTLIDTVLFKCYLYYNPPMVGPFIRVENHCDSHVIVTELKIRHMFKDLIDFYYKRGNHEEALKFLTDLVDELENDNTDQKQRQKIDHGVKILVIYYLKKLSNPQLDVIFTYTDWLLNRHNDSIKEILSSIFFYDSQACSSRDHLKVYGYIKKFDKLLAIQYLEFAISTFRLEGNKLHTVLIKLYLENLDIPSTRIKLKSLLETTSVYEPRTILKLLNDAIESGSDQLPTNQLNFVKYLKIFPLSKLENHKEAVHILLDEIDDYKAATSYCNDVYQSDSTKGEELLLYLYSKLVSIYDSNRNSKLILNFLQDHGSKLNSAEIYKNLPQDISLYDIGRVVSQLLKKHTSKMDETRLEKALLQVELVATTYKLNERMSSYGVLSDSHKCPICKKVISNFGTDSISWFTREGRNIITHYNCGKVLQERFNAKNEKSSRIKQKTLGEVINELNNK
co-precipitation efficiency relative to that of Vps41-HA: 2 fold
